# Assay results published in publication PMC9170159 (Proceedings of the National Academy of Sciences of the …, 2022).
# Where “and” joins values, the source holds several entries; their conditions need not be identical. Identical values can stand only once.
# B1: NCI-CoV-8A2 VHH-hFc fusion protein (Fc fusion)
# VHH: AVQLVDSGGGSVQAGGSLRLSCAASGYTYSICTMGWYRQAPGEGLEWVSGINADGSNTHYTDSVKGRFTISRDNAKKTLYLQMNSLKPEDTAIYYCAAHGTYDKYAPCGGFAGTYTYWGQGTQVTVSS
# notes: also called 8A2 VHH-Fc; source: Expi293 cells, transfected, purified (protein A column)
# B2: 1H6 VHH-hFc fusion protein (Fc fusion)
# VHH: AVQLVDSGGGSVQAGGSLNLSCVASGTTLRNGCMAWFRQVPGKEREVVAIIIRATSYTDYADSVKGRFTISQDNAKNTVYLQMKSLTPEDTATYYCAATLYRVNCAKREFDKWGQGTQVTVSS
# notes: also called 1H6 VHH-Fc; source: Expi293 cells, transfected, purified (protein A column)
# B3: NCI-CoV-7A3 VHH-hFc fusion protein (Fc fusion)
# VHH: QVQLVESGGGSVQPGGSLRLSCVVSGYTSSSRYMGWFRQVPGKGLEWVSGIKRDGTNTYYADSVKGRFTISQDNAKNTVYLQMNSLKPEDTAMYYCAAGSWYNQWGYSMDYWGKGTQVTVSS
# notes: also called 7A3 VHH-Fc; source: Expi293 cells, transfected, purified (protein A column)
# B4: 8A4 VHH-hFc fusion protein (Fc fusion)
# VHH: EVQLVESGGGLVQPGESLRLSCEASGFTFSSVYMSWVRQAPGKGLEWISTIHPAGGSTYYADSMKDRFTISRDNAKNTLYLQMNSLKSEDTALYYCIIEALSGYRGPGTQVTVSS
# notes: also called 8A4 VHH-Fc; source: Expi293 cells, transfected, purified (protein A column)
# Target: T1, SARS-CoV-2 (Wuhan-Hu-1) spike receptor-binding domain, His-tagged (SARS-CoV-2, UniProt P0DTC2 319-541)
# Assay: BLI
# Conditions: both partners purified
row,Binder,Kd
1,B1,260 pM and 130 pM
2,B2,37000 pM and 42000 pM
3,B3,190 pM and 200 pM
4,B4,140 pM and 180 pM

# Target: T1, SARS-CoV-2 (Wuhan-Hu-1) spike …
# Assay: BLI
# Conditions: both partners purified
# Remark: another data set of the same source
row,Binder,Kd
1,B1,260 pM
2,B3,200 pM
3,B4,160 pM
